Results: the supplement of paper PMC11246515
± gives the standard deviation of the averaged measurements.

Experiment: total protein half-life in vivo (active degradation + dilution); higher = more stable protein
[1] = E. coli NCM3722 delta-clpP delta-lon delta-hslV, growth: N-lim chemostat, doubling time 6 h
[2] = E. coli NCM3722 delta-clpP, growth: N-lim chemostat, doubling time 6 h
[3] = E. coli NCM3722 delta-hslV, growth: N-lim chemostat, doubling time 6 h
[4] = E. coli NCM3722 delta-lon, growth: N-lim chemostat, doubling time 6 h
[5] = E. coli NCM3722 delta-smpB, growth: N-lim chemostat, doubling time 6 h
[6] = wild type E. coli NCM3722, growth: C-lim chemostat, doubling time 3 h
[7] = wild type E. coli NCM3722, growth: C-lim chemostat, doubling time 6 h
[8] = wild type E. coli NCM3722, growth: C-lim chemostat, doubling time 12 h
[9] = wild type E. coli NCM3722, growth: N-lim chemostat, doubling time 12 h
[10] = wild type E. coli NCM3722, growth: P-lim chemostat, doubling time 6 h
[11] = wild type E. coli NCM3722, growth: P-lim chemostat, doubling time 12 h
[12] = wild type E. coli NCM3722, growth: N-lim chemostat, doubling time 6 h

Sequence	total protein half-life in vivo [1] [h]	total protein half-life in vivo [2] [h]	total protein half-life in vivo [3] [h]	total protein half-life in vivo [4] [h]	total protein half-life in vivo [5] [h]	total protein half-life in vivo [6] [h]	total protein half-life in vivo [7] [h]	total protein half-life in vivo [8] [h]	total protein half-life in vivo [9] [h]	total protein half-life in vivo [10] [h]	total protein half-life in vivo [11] [h]	total protein half-life in vivo [12] [h]
MPVLHNRISNDALKAKMLAESEPRTTISFYKYFHIADPKATRDALYQLFTALNVFGRVYLAHEGINAQISVPASNVETFRAQLYAFDPALEGLRLNIALDDDGKSFWVLRMKVRDRIVADGIDDPHFDASNVGEYLQAAEVNAMLDDPDALFIDMRNHYEYEVGHFENALEIPADTFREQLPKAVEMMQAHKDKKIVMYCTGGIRCEKASAWMKHNGFNKVWHIEGGIIEYARKAREQGLPVRFIGKNFVFDERMGERISDEIIAHCHQCGAPCDSHTNCKNDGCHLLFIQCPVCAEKYKGCCSEICCEESALPPEEQRRRRAGRENGNKIFNKSRGRLNTTLCIPDPTE	5.01 ± 0.67	0.746 ± 0.024	0.396	0.483	0.56	0.343 ± 0.0081	0.308	0.65	0.808	0.402 ± 0.34	1.16 ± 1.1	–
MQAATVVINRRALRHNLQRLRELAPASKMVAVVKANAYGHGLLETARTLPDADAFGVARLEEALRLRAGGITKPVLLLEGFFDARDLPTISAQHFHTAVHNEEQLAALEEASLDEPVTVWMKLDTGMHRLGVRPEQAEAFYHRLTQCKNVRQPVNIVSHFARADEPKCGATEKQLAIFNTFCEGKPGQRSIAASGGILLWPQSHFDWVRPGIILYGVSPLEDRSTGADFGCQPVMSLTSSLIAVREHKAGEPVGYGGTWVSERDTRLGVVAMGYGDGYPRAAPSGTPVLVNGREVPIVGRVAMDMICVDLGPQAQDKAGDPVILWGEGLPVERIAEMTKVSAYELITRLTSRVAMKYVD [P0A6B4]	5.14 ± 0.16	4.27 ± 0.085	5.12 ± 0.41	4.99 ± 0.29	4.58 ± 1.3	3.1 ± 0.046	5.75 ± 0.44	11 ± 1.9	7.99 ± 0.34	5.87 ± 0.2	11.53 ± 0.057	4.39 ± 0.14
MQAIPMTLRGAEKLREELDFLKSVRRPEIIAAIAEAREHGDLKENAEYHAAREQQGFCEGRIKDIEAKLSNAQVIDVTKMPNNGRVIFGATVTVLNLDSDEEQTYRIVGDDEADFKQNLISVNSPIARGLIGKEEDDVVVIKTPGGEVEFEVIKVEYL [P0A6W5]	5.3 ± 0.11	4.38 ± 0.77	3.21 ± 0.12	3.76 ± 0.18	2.44 ± 0.26	2.57 ± 0.24	4.48 ± 0.2	6.41 ± 0.17	4.46 ± 0.28	3.75 ± 0.55	6.8 ± 0.8	3.27 ± 0.066
MQAYFDQLDRVRYEGSKSSNPLAFRHYNPDELVLGKRMEEHLRFAACYWHTFCWNGADMFGVGAFNRPWQQPGEALALAKRKADVAFEFFHKLHVPFYCFHDVDVSPEGASLKEYINNFAQMVDVLAGKQEESGVKLLWGTANCFTNPRYGAGAATNPDPEVFSWAATQVVTAMEATHKLGGENYVLWGGREGYETLLNTDLRQEREQLGRFMQMVVEHKHKIGFQGTLLIEPKPQEPTKHQYDYDAATVYGFLKQFGLEKEIKLNIEANHATLAGHSFHHEIATAIALGLFGSVDANRGDAQLGWDTDQFPNSVEENALVMYEILKAGGFTTGGLNFDAKVRRQSTDKYDLFYGHIGAMDTMALALKIAARMIEDGELDKRIAQRYSGWNSELGQQILKGQMSLADLAKYAQEHHLSPVHQSGRQEQLENLVNHYLFDK	4.53 ± 0.48	–	2.75	–	–	2.93 ± 0.26	4.84 ± 0.15	8.63 ± 0.81	–	5.81 ± 0.47	11.6 ± 0.51	3.53
MQDAAPRLTFTLRDEERLMMKIGVFVPIGNNGWLISTHAPQYMPTFELNKAIVQKAEHYHFDFALSMIKLRGFGGKTEFWDHNLESFTLMAGLAAVTSRIQIYATAATLTLPPAIVARMAATIDSISGGRFGVNLVTGWQKPEYEQMGIWPGDDYFSRRYDYLTEYVQVLRDLWGTGKSDFKGDFFTMNDCRVSPQPSVPMKVICAGQSDAGMAFSARYADFNFCFGKGVNTPTAFAPTAARMKQAAEQTGRDVGSYVLFMVIADETDDAARAKWEHYKAGADEEALSWLTEQSQKDTRSGTDTNVRQMADPTSAVNINMGTLVGSYASVARMLDEVASVPGAEGVLLTFDDFLSGIETFGERIQPLMQCRAHLPALTQEVA	5.26 ± 0.37	3.06 ± 0.12	0.715 ± 0.26	0.661 ± 0.0067	0.481 ± 0.11	–	–	–	0.664 ± 0.16	–	–	0.658 ± 0.16
MQEIYRFIDDAIEADRQRYTDIADQIWDHPETRFEEFWSAEHLASALESAGFTVTRNVGNIPNAFIASFGQGKPVIALLGEYDALAGLSQQAGCAQPTSVTPGENGHGCGHNLLGTAAFAAAIAVKKWLEQYGQGGTVRFYGCPGEEGGSGKTFMVREGVFDDVDAALTWHPEAFAGMFNTRTLANIQASWRFKGIAAHAANSPHLGRSALDAVTLMTTGTNFLNEHIIEKARVHYAITNSGGISPNVVQAQAEVLYLIRAPEMTDVQHIYDRVAKIAEGAALMTETTVECRFDKACSSYLPNRTLENAMYQALSHFGTPEWNSEELAFAKQIQATLTSNDRQNSLNNIAATGGENGKVFALRHRETVLANEVAPYAATDNVLAASTDVGDVSWKLPVAQCFSPCFAVGTPLHTWQLVSQGRTSIAHKGMLLAAKTMAATTVNLFLDSGLLQECQQEHQQVTDTQPYHCPIPKNVTPSPLK	5.29 ± 0.17	–	–	–	–	–	–	–	–	–	–	–
MQENISVTDSYSTGNAAQAMLEKLLQIYDVKTLVAQLNGVGENHWSAAILKRALANDSAWHRLSEKEFAHLQTLLPKPPAHHPHYAFRFIDLFAGIGGIRRGFESIGGQCVFTSEWNKHAVRTYKANHYCDPATHHFNEDIRDITLSHKEGVSDEAAAEHIRQHIPEHDVLLAGFPCQPFSLAGVSKKNSLGRAHGFACDTQGTLFFDVVRIIDARRPAMFVLENVKNLKSHDQGKTFRIIMQTLDELGYDVADAEDNGPDDPKIIDGKHFLPQHRERIVLVGFRRDLNLKADFTLRDISECFPAQRVTLAQLLDPMVEAKYILTPVLWKYLYRYAKKHQARGNGFGYGMVYPNNPQSVTRTLSARYYKDGAEILIDRGWDMATGEKDFDDPLNQQHRPRRLTPRECARLMGFEAPGEAKFRIPVSDTQAYRQFGNSVVVPVFAAVAKLLEPKIKQAVALRQQEAQHGRRSR [P0AED9]	6.76 ± 1.5	5.15 ± 0.12	3.09 ± 0.34	2.96 ± 0.39	2.66 ± 0.11	2.31 ± 0.072	3.32 ± 0.18	6.06 ± 0.83	3.94 ± 0.19	3.02 ± 0.45	5.98 ± 1	3.04 ± 0.39
MQERIKACFTESIQTQIAAAEALPDAISRAAMTLVQSLLNGNKILCCGNGTSAANAQHFAASMINRFETERPSLPAIALNTDNVVLTAIANDRLHDEVYAKQVRALGHAGDVLLAISTRGNSRDIVKAVEAAVTRDMTIVALTGYDGGELAGLLGPQDVEIRIPSHRSARIQEMHMLTVNCLCDLIDNTLFPHQDD	5.68 ± 1.7	6.95 ± 0.57	4.6 ± 0.094	5.12 ± 0.18	5.68 ± 1.4	3.087 ± 0.0052	5.56 ± 0.26	11.1 ± 0.025	7.55 ± 1	5.81 ± 0.52	13 ± 3.2	4.54
